Test results as given in the supplement of paper PMC10724198.
± gives the standard deviation of the averaged measurements.

Test system: Saccharomyces cerevisiae
Test: protein stability index of tFT-peptide fusion (C-terminal peptide) (PSI (0-1 scale)); higher = more stable (slower turnover)
Details: genetic background: wild type; temperature: 30 C
Protocol: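 Multiplexed protein stability (MPS) profiling in S. cerevisiae. Random 12-aa peptides (tFT-X12 library) are fused to the C-terminus of a sfGFP-mCherry tandem fluorescent timer, after mCherry and a GGGS linker. Cells are FACS-sorted into 8 mCherry/sfGFP bins and deep-sequenced. The protein stability index (PSI) is the read-weighted bin average, scaled from 0 (unstable) to 1 (stable). Only peptides with >10 reads are reported; cells were grown at 30 °C in SC-His with glucose.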
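Further: PSI is a weighted mean of sequencing reads over stability bins, variants kept only with over 10 reads, mCherry proximal and sfGFP distal, peptide attached via GGGS linker.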

Sequence | protein stability index
GPCPCAPRSPSY | 0.6705 ± 0.0033
GPFLFPGASCGL | 0.717 ± 0.011
GPFRGRCFPFCI | 0.667 ± 0.037
GPGCVFFLACRG | 0.559 ± 0.024
GPGFGEFVWSLW | 0.692 ± 0.044
GPGPRLSCLVPT | 0.73 ± 0.035
GPGTYGASLSGR | 0.65 ± 0.053
GPKGVTRCGATR | 0.721 ± 0.12
GPKPHREKKSIN | 0.73 ± 0.045
GPKSPLVCSPPP | 0.657 ± 0.13
GPLATACPPALT | 0.701 ± 0.046
GPLPPPFSALPP | 0.703 ± 0.024
GPLRFSLPPPPS | 0.69 ± 0.017
GPRPHVLPLAYF | 0.675 ± 0.024
GPRTPPKPRQVP | 0.616 ± 0.024
GPSCSGLHAPTS | 0.831 ± 0.1
GPSGGSGGGGVG | 0.597 ± 0.049
GPSLLLLSVLSE | 0.6225 ± 0.003
GPTSTETYKEVG | 0.671 ± 0.0011
GPVLELWLGRSR | 0.775 ± 0.04
GPVQSISMTVGH | 0.6548 ± 0.0025
GPVSVTFGGTYC | 0.678 ± 0.046
GPWGGRLSWAPG | 0.636 ± 0.0092
GQMSKMRDRLIA | 0.652 ± 0.0094
GQPGDCWRVCPR | 0.6851 ± 0.0027
GQPLAEKFGEFV | 0.623 ± 0.088

Sequence | protein stability index
GRAPPGHSLPVR | 0.7187 ± 0.0071
GRAWWVGGEGVW | 0.677 ± 0.014
GRCGGEGGGEEE | 0.673 ± 0.031
GRCRALVARGGH | 0.76 ± 0.2
GREVRGLRVPGS | 0.653 ± 0.071
GRGEDLVRRHTP | 0.668 ± 0.032
GRGEGVDRSSRR | 0.703 ± 0.017
GRGGGEEEEEER | 0.663 ± 0.024
GRGGGSRIVGGV | 0.704 ± 0.023
GRGGRGWGEWDR | 0.706 ± 0.059
GRGGVLEEAVGG | 0.654 ± 0.077
GRGIVVQNVLRQ | 0.696 ± 0.011
GRGVDGRSGCLL | 0.6732 ± 0.0029
GRLPAYIHATRA | 0.63128 ± 0.00047
GRLSPRRPRLLV | 0.645 ± 0.024
GRPYCISASPPH | 0.706 ± 0.0075
GRQTEENRKRRV | 0.7 ± 0.037
GRRGRSASRIRA | 0.76 ± 0.14
GRRMGHQLGAGA | 0.684 ± 0.039
GRRMRGAEKQKK | 0.829 ± 0.16
GRRPDEQRQTIG | 0.677 ± 0.0071
GRRQGKRRIGRK | 0.652 ± 0.036
GRRTNLCERLAL | 0.722 ± 0.042
GRSAGGTGAPSR | 0.699 ± 0.022
GRSAVVMCFHAG | 0.697 ± 0.018
GRSAYRESGRRV | 0.675 ± 0.04

Sequence | protein stability index
GRSCAFCRVSRG | 0.721 ± 0.083
GRSGGGTGAPSR | 0.637 ± 0.061
GRSPEIGPHIVN | 0.699 ± 0.014
GRVGLRGRPGPP | 0.716 ± 0.12
GRVRAKTETSNS | 0.669 ± 0.028
GRVSGDRFIVIV | 0.572 ± 0.0008
GRVVGDGRSVGV | 0.683 ± 0.01
GSACGSSYKWQM | 0.614 ± 0.068
GSAGPWSFVGDP | 0.702 ± 0.085
GSCLLCGACGCR | 0.692 ± 0.061
GSCSGTVLGGSV | 0.626 ± 0.024
GSCVGASRGWLV | 0.727 ± 0.068
GSEISTRGVGRR | 0.6647 ± 0.0013
GSFVLPLIYIHN | 0.499 ± 0.0025
GSGGRGTVCSEG | 0.652 ± 0.015
GSGPPVGNGLIV | 0.7169 ± 0.0027
GSGRGGWRRGER | 0.707 ± 0.042
GSIRFVIFLTRL | 0.587 ± 0.12
GSLIVAARGVAG | 0.681 ± 0.024
GSLLSNVPPRIR | 0.706 ± 0.013
GSQRAHRQAAHD | 0.683 ± 0.077
GSQVGVRWGRFG | 0.675 ± 0.0079
GSRGGPGGEAAG | 0.652 ± 0.019
GSRRSWWVLCLG | 0.485 ± 0.072
GSRSLISLRTGA | 0.604 ± 0.037
GSSHLRFRGMEG | 0.614 ± 0.02

Sequence | protein stability index
GSSTINRVDLKR | 0.662 ± 0.015
GSSYRKNDRQEK | 0.723 ± 0.048
GSVFWVCGFFRV | 0.559 ± 0.034
GSVGDASYAAVW | 0.819 ± 0.034
GSVGQNLCPGSI | 0.667 ± 0.031
GSVGSRIFLVHV | 0.602 ± 0.086
GSVMGRRTGAFV | 0.653 ± 0.041
GSVRSLARFCVF | 0.499 ± 0.072
GSVTLTLLRPPS | 0.753 ± 0.086
GSYSIVDRTPLF | 0.5679 ± 0.005
GSYVPPVVLLYK | 0.647 ± 0.0095
GTDWRDKADLRG | 0.7071 ± 0.0046
GTEKRDSDKIIL | 0.68 ± 0.086
GTGSRFRCLERS | 0.739 ± 0.031
GTLFKEGSRVTL | 0.665 ± 0.027
GTRAGGGWSCES | 0.711 ± 0.02
GTRGLDTPPGRD | 0.663 ± 0.067
GTSPGREFYWHK | 0.702 ± 0.033
GTTHHRRKPSYL | 0.725 ± 0.05
GTTLGEVVCGVL | 0.683 ± 0.045
GTVDGILLVFVE | 0.593 ± 0.026
GVAPGRSRRKRG | 0.67 ± 0.018
GVCSWLVFGGWA | 0.684 ± 0.056
GVDAGGVFSRLC | 0.639 ± 0.018
GVDGRWGGEMGR | 0.747 ± 0.097
GVEDRFGGSCGL | 0.639 ± 0.049

Sequence | protein stability index
GVERSLFGRIGV | 0.735 ± 0.024
GVESQIHISTYE | 0.686 ± 0.049
GVEVVVWRSGGI | 0.688 ± 0.019
GVFAGGLWCVGF | 0.657 ± 0.087
GVFGGAGCGVVL | 0.724 ± 0.022
GVFGLMVGWGWG | 0.671 ± 0.053
GVFWRGCGGCGG | 0.685 ± 0.041
GVGDELIRAEQT | 0.723 ± 0.018
GVGGFPSRLVGG | 0.69 ± 0.043
GVGGRAGWGGLL | 0.7167 ± 0.002
GVGGRGVGAGGG | 0.662 ± 0.055
GVGLGGVGFRGG | 0.694 ± 0.098
GVGSWSCGGSVH | 0.6634 ± 0.0034
GVIKLTQEKAST | 0.679 ± 0.017
GVLCGQGRAGAA | 0.7 ± 0.014
GVLCGVGLGFGV | 0.702 ± 0.044
GVLDTRWIIIST | 0.53 ± 0.029
GVLLCVDGSGGE | 0.762 ± 0.054
GVMASLVRMSQG | 0.679 ± 0.11
GVPAPVFCRSIF | 0.618 ± 0.015
GVPPFSPPPPPH | 0.683 ± 0.017
GVQCLVFIGRPK | 0.69 ± 0.093
GVQEGGGVARGG | 0.639 ± 0.018
GVRGALGCAGRV | 0.679 ± 0.02
GVRNGFMSVSLY | 0.651 ± 0.01
GVSGGDGSKCKE | 0.682 ± 0.016

Sequence | protein stability index
GVSLFFITQFET | 0.712 ± 0.012
GVSPSCILPLIL | 0.653 ± 0.011
GVSPSPPSPPPH | 0.741 ± 0.062
GVSRGTGIGEGE | 0.6774 ± 0.0039
GVVCWRFLLADV | 0.596 ± 0.028
GVVGCSCLGCGF | 0.717 ± 0.054
GVVGVGRCWGLV | 0.628 ± 0.08
GVWCLDVYGRRC | 0.6837 ± 0.0022
GVYWGEIDDVER | 0.717 ± 0.015
GWAFDVAGQSAR | 0.683 ± 0.0097
GWAGGEGWRGEG | 0.6964 ± 0.0062
GWALGRGRRVSG | 0.691 ± 0.033
GWDFRERLGGSG | 0.71 ± 0.028
GWGGCDSVVVSG | 0.697 ± 0.033
GWGGGCGCGRGI | 0.687 ± 0.058
GWGVGGKVGQAG | 0.6814 ± 0.0047
GWLAERGPLEGG | 0.728 ± 0.016
GWLVVLGLVQDL | 0.559 ± 0.039
GWMTGMEERGGG | 0.674 ± 0.053
GWNCTAFRTLHI | 0.662 ± 0.061
GWNGAGSGCVRA | 0.659 ± 0.068
GWREPQHGARGP | 0.719 ± 0.022
GWRGGGSRELKW | 0.743 ± 0.031
GWWCAGVREWTR | 0.8 ± 0.013
GYCGRGCWGVGC | 0.7093 ± 0.0056
